The values below are quoted from earlier work in PMC2949527.

This data set concerns the target RFX5(25-90)2·RFXAP(214-272) complex 25-90 + 214-272 (Homo sapiens) (UniProt P48382).

Chain of RFXB (O14593 whole entry): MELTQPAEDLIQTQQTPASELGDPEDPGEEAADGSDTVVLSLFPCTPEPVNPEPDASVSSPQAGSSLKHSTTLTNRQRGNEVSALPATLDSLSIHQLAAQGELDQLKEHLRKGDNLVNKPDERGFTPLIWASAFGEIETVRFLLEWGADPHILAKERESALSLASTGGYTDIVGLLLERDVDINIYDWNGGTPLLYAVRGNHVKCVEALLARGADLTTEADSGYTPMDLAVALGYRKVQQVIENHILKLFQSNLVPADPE
Chain of RFX5(25-90)2·RFXAP(214-272) complex 25-90 + 214-272 (Homo sapiens) (P48382 2-616, chain 1 of 2): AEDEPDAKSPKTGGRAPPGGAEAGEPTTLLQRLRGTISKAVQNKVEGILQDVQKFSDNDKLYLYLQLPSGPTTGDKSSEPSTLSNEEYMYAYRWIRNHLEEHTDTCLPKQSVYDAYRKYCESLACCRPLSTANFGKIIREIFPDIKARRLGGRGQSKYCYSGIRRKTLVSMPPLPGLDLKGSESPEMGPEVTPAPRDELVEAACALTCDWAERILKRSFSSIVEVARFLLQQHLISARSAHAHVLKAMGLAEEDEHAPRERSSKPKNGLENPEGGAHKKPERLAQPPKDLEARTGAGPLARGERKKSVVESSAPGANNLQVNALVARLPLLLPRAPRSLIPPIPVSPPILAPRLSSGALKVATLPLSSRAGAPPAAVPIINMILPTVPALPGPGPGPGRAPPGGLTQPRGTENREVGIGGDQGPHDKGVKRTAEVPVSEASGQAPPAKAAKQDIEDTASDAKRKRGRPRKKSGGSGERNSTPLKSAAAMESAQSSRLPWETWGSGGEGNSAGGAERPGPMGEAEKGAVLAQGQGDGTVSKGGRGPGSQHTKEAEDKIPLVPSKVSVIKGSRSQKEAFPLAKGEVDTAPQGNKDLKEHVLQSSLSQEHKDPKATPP
Chain of RFX5(25-90)2·RFXAP(214-272) complex 25-90 + 214-272 (Homo sapiens) (O00287 whole entry, chain 2 of 2, further chain): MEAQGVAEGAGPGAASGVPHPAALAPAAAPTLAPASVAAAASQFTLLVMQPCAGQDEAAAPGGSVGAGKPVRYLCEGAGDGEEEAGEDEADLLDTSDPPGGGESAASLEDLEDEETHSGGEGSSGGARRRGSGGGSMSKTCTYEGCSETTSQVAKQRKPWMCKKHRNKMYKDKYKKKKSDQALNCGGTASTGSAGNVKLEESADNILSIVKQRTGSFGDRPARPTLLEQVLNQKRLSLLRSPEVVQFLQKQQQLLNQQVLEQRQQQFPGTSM

With RFXB (from UniProt O14593), the Kd was 76 nM.
